Where two headings read alike, the source gives them in different places. Starred links: 1 amine or outer side, 2 acyl side, 3 side chain; linkers in the order of their positions; H or OH if unused. Positions of bridges follow the written chain, without caps; N, C: chain ends. Non-standard residues stand in square brackets, D forms with d. Residues, ends and D or L forms follow the SMILES beside them. dTyr(O-Me) = O-methyl-D-tyrosine, COc1ccc(C[C@@H](N[*:1])C(=O)[*:2])cc1; dPhe(4-Br) = N[C@H](Cc1ccc(Br)cc1)C(=O)O; dPhe(4-F) = N[C@H](Cc1ccc(F)cc1)C(=O)O
Assays:
human MC3R [1] = target: T1, human MC3R (Homo sapiens, UniProt P41968); test: split-luciferase cAMP sensor assay, agonist mode (measurement window 1), hMC3R; type: cell-based; conditions: agonist mode, hMC3R stable cell line; for Emax: read-out: MC3R cAMP % max activation
T1 construct: expressed in transfected cells; host or cells: HEK-293 cells stably expressing the GScAMP22F split-luciferase cAMP sensor (parent reporter line from Promega); MC3R clone generated in-house, G418 selection
T1 sequence (P41968 whole entry): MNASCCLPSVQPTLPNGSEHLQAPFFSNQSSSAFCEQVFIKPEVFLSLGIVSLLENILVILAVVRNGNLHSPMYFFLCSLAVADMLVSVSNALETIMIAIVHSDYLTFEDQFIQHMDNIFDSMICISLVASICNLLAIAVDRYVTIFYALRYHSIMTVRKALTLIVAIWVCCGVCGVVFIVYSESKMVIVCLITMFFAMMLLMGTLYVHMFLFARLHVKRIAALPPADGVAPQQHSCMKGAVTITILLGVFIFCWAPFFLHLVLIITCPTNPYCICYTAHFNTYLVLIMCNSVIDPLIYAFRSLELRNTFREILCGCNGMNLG
Outline: (§1)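 Live stable cell lines carrying receptor plus GloSensor cAMP22f split-luciferase, loaded with 4% D-luciferin in serum-free medium (~1% serum estimated during assay). Luminescence recorded during in-line peptide addition; direct agonist effect read in window 1, with 20 μM forskolin as normalization reference. EC50 from four-parameter sigmoid fit.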

human MC4R = target: T2, human MC4R (Homo sapiens, UniProt P32245); test: split-luciferase cAMP sensor assay, agonist mode (measurement window 1), hMC4R; type: cell-based; conditions: for Emax: read-out: MC4R cAMP % max activation
T2 construct: host or cells: HEK-293 cells stably expressing the GScAMP22F split-luciferase cAMP sensor and hMC4R, G418 selection
T2 sequence (P32245 whole entry): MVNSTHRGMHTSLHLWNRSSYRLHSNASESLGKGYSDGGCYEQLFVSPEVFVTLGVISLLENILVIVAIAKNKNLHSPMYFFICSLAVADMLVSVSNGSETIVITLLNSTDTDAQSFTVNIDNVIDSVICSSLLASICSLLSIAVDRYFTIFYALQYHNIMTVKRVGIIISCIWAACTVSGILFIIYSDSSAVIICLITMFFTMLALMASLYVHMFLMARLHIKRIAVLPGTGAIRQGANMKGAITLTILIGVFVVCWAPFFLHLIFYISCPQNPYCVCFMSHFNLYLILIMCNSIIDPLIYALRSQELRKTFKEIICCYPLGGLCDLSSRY
Outline: as §1

human MC3R [2] = target: T1, human MC3R; test: split-luciferase cAMP sensor assay, antagonist mode in presence of EC90 α-MSH (measurement window 2), hMC3R; type: cell-based; conditions: agonist curves and antagonist curves in presence of EC80 to EC90 α-MSH
Protocol: FIG. 2. […] Concentration-response agonist curves for CTX-2205 and CTX-1214 at the human MC3R (blue) and human MC4R (red) were determined by a split-luciferase cAMP sensor dynamic assay in HEK-293 cells stably expressing the hMC3R or hMC4R and the GScAMP22F CAMP sensor. The antagonist curves were determined in the presence of an EC80 to EC90 concentration of α-MSH. Each data point represents the mean±SEM of two experiments with three replicates each per experiment. Data is normalized to the ECmax of α-MSH.
The assay for the determination of the cAMP response in live cells was described previously. (Yu et al., 2020, Science 368, 428-433; incorporated by reference in its entirety). […] Intracellular cAMP levels were measured using an FDSS 7000EX Functional Drug Screening System (Hamamatsu Photonics, Hamamatsu, Japan) in the Center for Chemical Genomics at the Life Sciences Institute. This instrument allowed the in-line addition of test-peptides and receptor agonists while simultaneously acquiring the luminescence signal from live cells. […]
With this set up it was possible to evaluate the direct effect of the test-peptides on the MC3R and MC4R cell lines during measurement window 1, while the antagonist profile in the presence of EC90 α-MSH was determined on measurement window 2. […]

human MC4R receptor [3] = target: T3, human MC4R receptor (human, UniProt P32245 1-332); test: cell-based or functional assay
T3 sequence (P32245 whole entry): as above

plasma protein [4] = test: plasma ultrafiltration (Centrifree), LC-MS/MS; peptide 0.1 uM
plasma protein [5] = test: plasma ultrafiltration (Centrifree), LC-MS/MS; peptide 1.0 uM
plasma protein [6] = test: plasma ultrafiltration (Centrifree), LC-MS/MS; peptide 10.0 uM
human MC3R [7] = target: human MC3R (human, UniProt P41968 1-323); test: cell-based or functional assay
Chain of human MC3R (human, UniProt P41968 1-323) (P41968 whole entry): as the sequence (P41968 whole entry) above

human MC4R receptor [8] = target: T3, human MC4R receptor; test: cell-based or functional assay; remark: listed apart in the source
human MC4R receptor [9] = target: T3, human MC4R receptor; test: cell-based or functional assay; remark: listed apart in the source
[10] = agonist mode, hMC4R stable cell line

## CC(=O)N[C@@H](CCCNC(=N)N)C(=O)N[C@H]1CSSC[C@@H](C(N)=O)NC(=O)[C@@H](Cc2c[nH]c3ccccc23)NC(=O)[C@H](CCCNC(=N)N)NC(=O)[C@@H](Cc2ccc(Br)cc2)NC(=O)[C@H](CCCNC(=N)N)NC(=O)[C@@H](C)NC1=O [CTX-1214, Arg-cyclo(Cys-D-Ala-Arg-D-Phe(4-Br)-Arg-D-Trp-Cys)] (Ac-RC[dA]R[dPhe(4-Br)]R[dW]C-NH2; disulfide 2-8 (inferred))
Human MC3R [1]
  Emax: 15%
Human MC3R [1]; read-out: MC3R cAMP EC50
  EC50: 4.1 nM
Human MC4R
  MC4R selectivity vs MC3R: 0.2
Human MC4R; [10]
  Emax: 74%
Human MC4R; agonist mode, hMC4R stable cell line, read-out: MC4R cAMP EC50
  EC50: 2.6 nM
Human MC3R [2]
  pharmacological properties at hMC4R and hMC3R: dual MC4R agonist, MC3R antagonist properties

## CC(=O)N[C@@H](CCCNC(=N)N)C(=O)N[C@H]1CSSC[C@@H](C(N)=O)NC(=O)[C@H](Cc2c[nH]c3ccccc23)NC(=O)[C@H](CCCNC(=N)N)NC(=O)[C@@H](Cc2ccc(Br)cc2)NC(=O)[C@H](CCCNC(=N)N)NC(=O)[C@@H](C)NC1=O [CTX-2205, Arg-cyclo(Cys-D-Ala-Arg-D-Phe(4-Br)-Arg-Trp-Cys)] (Ac-RC[dA]R[dPhe(4-Br)]RWC-NH2; disulfide 2-8)
Human MC3R [1]
  Emax: 13%
Human MC4R
  MC4R selectivity vs MC1R: 0.2
  MC4R selectivity vs MC3R: 2.12
Human MC4R; [10]
  Emax: 88%
Human MC3R [2]
  pharmacological properties at hMC4R and hMC3R: dual MC4R agonist, MC3R antagonist properties

## CTX-1200 (setmelanotide) (peptide)
Human MC4R receptor [3]
  MC4R selectivity vs MC1R: 0.69
  MC4R selectivity vs MC3R: 4.09
Plasma protein [4]
  Protein Binding (%): 43%
Plasma protein [5]
  Protein Binding (%): 57%
Plasma protein [6]
  Protein Binding (%): 61%

B1: CTX-1258 (peptide)
peptide: Ac-RC[dA]R[dPhe(4-Br)]RFC-NH2
modifications: disulfide 2-8
SMILES: CC(=O)N[C@@H](CCCNC(=N)N)C(=O)N[C@H]1CSSC[C@@H](C(N)=O)NC(=O)[C@H](Cc2ccccc2)NC(=O)[C@H](CCCNC(=N)N)NC(=O)[C@@H](Cc2ccc(Br)cc2)NC(=O)[C@H](CCCNC(=N)N)NC(=O)[C@@H](C)NC1=O
Human MC3R [7]
  % max activation: 36%
  cAMP EC50: 7.4 nM
Human MC4R receptor [8]
  % max activation: 92%
  cAMP EC50: 2.4 nM
Human MC4R receptor [9]
  MC4R selectivity vs MC1R: 0.53
  MC4R selectivity vs MC3R: 3.04
Plasma protein [4]
  Protein Binding (%): 47%
Plasma protein [5]
  Protein Binding (%): 50%
Plasma protein [6]
  Protein Binding (%): 50%

B2: CTX-1236 (peptide)
peptide: Ac-RC[dA]R[dPhe(4-F)]R[dW]C-NH2
modifications: disulfide 2-8
Human MC3R [7]
  % max activation: 66%
  cAMP EC50: 2.6 nM
Human MC4R receptor [8]
  % max activation: 97%
  cAMP EC50: 1.9 nM
Human MC4R receptor [9]
  MC4R selectivity vs MC1R: 2.01
  MC4R selectivity vs MC3R: 1.36
Plasma protein [4]
  Protein Binding (%): 45%
Plasma protein [5]
  Protein Binding (%): 49%
Plasma protein [6]
  Protein Binding (%): 51%

B3: CTX-1238 (peptide)
peptide: Ac-RC[dA]R[dTyr(O-Me)]R[dW]C-NH2
modifications: disulfide 2-8
SMILES: COc1ccc(C[C@H]2NC(=O)[C@H](CCCNC(=N)N)NC(=O)[C@@H](C)NC(=O)[C@@H](NC(=O)[C@H](CCCNC(=N)N)NC(C)=O)CSSC[C@@H](C(N)=O)NC(=O)[C@@H](Cc3c[nH]c4ccccc34)NC(=O)[C@H](CCCNC(=N)N)NC2=O)cc1
Human MC3R [7]
  % max activation: 21%
  cAMP EC50: 3 nM
Human MC4R receptor [8]
  % max activation: 79%
  cAMP EC50: 6.2 nM
Human MC4R receptor [9]
  MC4R selectivity vs MC1R: 0.44
  MC4R selectivity vs MC3R: 0.49
Plasma protein [4]
  Protein Binding (%): 53%
Plasma protein [5]
  Protein Binding (%): 47%
Plasma protein [6]
  Protein Binding (%): 41%

From patent publication US20240391954A1, “MC4R AGONIST PEPTIDES” (The Regents of the University of Michigan, priority 2021, published 2024)
